Measurements from the supplement of paper PMC12042874.
± gives the uncertainty stated by the source.

Assay: amyloid nucleation score (Sup35N fusion, yeast selection) (log enrichment); library NNK2; higher = more nucleation; inactive = no reads after selection
Method in brief: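 DiMSum was used to calculate nucleation scores as log enrichment of output over input reads, centred on the mode score of non-aggregating sequences. Sequences with fewer than 100 input reads were not scored. Input and output came from Illumina sequencing of plasmid inserts in psi-negative yeast expressing peptides of 20 random codons fused to Sup35N, induced 24 hours with 100 μM copper sulfate and then grown 7 days at 30°C on medium lacking adenine and uracil.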

In order of falling amyloid nucleation score:
1. FSITCADFICYSLVGGERTP  9.559 ± 0.066
2. GESNMVYCLYQGTILSFAGW  8.379 ± 0.04
3. FMQICNFIC  8.012 ± 0.07
4. FVYQCMCFNADLCFKFRLCS  7.883 ± 0.065
5. FYCCIITYLDMA  6.667 ± 0.026
6. FNFGNDGYSFNIILWYQRYI  6.61 ± 0.063
7. GEPSCATCITVCLVLLSTQM  6.48 ± 0.081
8. FVLLGGMTWHT  5.512 ± 0.027
9. GCVLSVSWWVGSSLVNWGYY  5.356 ± 0.052
10. FVNLRVILH  5.18 ± 0.052
11. FTIFNKLCCVNYWVCILCYR  5.144 ± 0.049
12. FILGSESNLRVSMRLFGSNW  5.019 ± 0.03
13. FMYRDLYRFMYCVVCAQFFH  4.95 ± 0.05
14. FSCMISIKRFFRVAKNASGY  4.84 ± 0.084
15. FLQNWKLYRCCLRVASVGGR  4.67 ± 0.11
16. FLFLTTVSPRWTYRCTRFLG  4.64 ± 0.055
17. FYRHCFVVTNKRAPSKSRSK  4.61 ± 0.11
18. FYATYSSLRLGVVTIIPPGL  4.49 ± 0.087
19. FSGSALGCEMRYCSRVYWQR  4.46 ± 0.063
20. FSRGDIVA  4.41 ± 0.056
21. FRKWNSS  4.08 ± 0.072
22. FLILAHLGIKNYNWV  3.885 ± 0.037
23. FWEKSSKVFW  3.33 ± 0.13
24. GATRALRSVTRR  3.26 ± 0.13
25. FWVMANYRH  3.18 ± 0.047
26. FWKNYQIMMRMCDKHVIEDV  2.95 ± 0.11
27. FTIHYAGTGCWMGMYINSDY  2.44 ± 0.062
28. FIAFVYNL  1.95 ± 0.091
29. FSVLILFMLIWNNGCYLKED  1.94 ± 0.11
30. FTCTGRRVYAQLKNVFIFVL  1.92 ± 0.19
31. GCWYIDIWL  1.73 ± 0.11
32. GFLFRFETRKTHRSCLSWIG  1.71 ± 0.13
33. FRSGCQFLWHERLNNNVTNA  1.54 ± 0.093
34. GCVCDVGPVTVRGVNGVLVS  1.45 ± 0.26
35. FVSVIILCFCVIQPMNLNSV  1.4 ± 0.15
36. FYLKFHRCGR  1.3 ± 0.11
37. FVNATVLR  1.24 ± 0.16
38. GAHNMREGAAPGRKRVVLAM  1.22 ± 0.35
39. FVLCT  1.15 ± 0.33
40. GDTCELCSVCQVNGV  1.15 ± 0.17
41. FLSSYVFLCWCSLVSWGGTW  1.03 ± 0.66
42. FRNSTATLYSVGSFTSKTQL  1.03 ± 0.19
43. FVLFENSGLFMGLDICMLCQ  1.01 ± 0.32
44. GCVGAVRRLEGSIVYEDRTL  0.944 ± 0.25
45. FSKGEATDCSWQ  0.918 ± 0.34
46. GDQPRPKMLLSWHRFLLQQS  0.887 ± 0.19
47. GCVPVRYIARSAWNNPDLPN  0.829 ± 0.57
48. GAMDLHQWASMMNMFPAMCV  0.731 ± 0.47
49. FVLNYLI  0.709 ± 0.17
50. FYRNPHR  0.706 ± 0.81
51. FLCMFMFESWYDHNAVAVSY  0.66 ± 0.57
52. FKSIDISAFSSSSHTGSYLG  0.578 ± 0.81
53. FRLLWCMFSL  0.571 ± 0.13
54. FSRLNSWILRSHGNKVKALT  0.552 ± 0.66
55. GDVLPNTSTGIFFSQPIMCA  0.501 ± 0.43
56. FHRRMFLCAVWLLRLTIVRQ  0.492 ± 0.39
57. FKQYFSYLVGLYRS  0.472 ± 0.8
58. FTVLEHRMFILSYVLRTRVW  0.468 ± 0.74
59. FSECLKTTENMKITQKGTPV  0.459 ± 0.54
60. FNGVLDWEWHGVAFAWAGLV  0.399 ± 0.65
61. FTSMLS  0.374 ± 0.64
62. FIDRMKMLWGLKSWDFQCHW  0.362 ± 0.45
63. GFIISFYISDSCKSLCWQPM  0.339 ± 0.53
64. FRLYPVPESKDLGRPGMPRQ  0.308 ± 0.23
65. FYYYLFFLAIISCTGYLALS  0.286 ± 0.42
66. FIWTYSYRDVWVLRVAVWLQ  0.283 ± 0.23
67. FLFLCGTDTFASRNPGRGKG  0.269 ± 0.51
68. FMVVC  0.249 ± 0.39
69. FTFILLGYVWRLLMYIPGMR  0.236 ± 1.1
70. FVLCYTTGFLVTFLLEWFFS  0.228 ± 1
71. GDIMKCSRCSATLGEPMKRC  0.218 ± 1.1
72. FWQSSLDSS  0.213 ± 0.38
73. FSSILWRFSRLVVRSLVPKS  0.175 ± 0.27
74. FYPWDSVCEFSLGCMSNPQA  0.158 ± 0.3
75. FTILRDFC  0.152 ± 0.77
76. FLCRLLGSGRSHHIRVC  0.15 ± 0.22
77. FQDLDLVHRLHSVSVNLETE  0.123 ± 1
78. GDVGAVRVSCVCWLVLVKRG  0.066 ± 0.76
79. FTASFFP  0.05 ± 0.26
80. FWSDSVVFRPDTVRLERSLG  0.025 ± 1.1
81. FMSLTSMLCNLRTNSCMCAR  -0.014 ± 0.21
82. FKSQIDSECMFYLLG  -0.018 ± 0.17
83. FLGDWKTCKVTGACKLCYGG  -0.018 ± 0.42
84. FNIVQHVASCGWLTYTWSAA  -0.018 ± 1.1
85. FLDMSSRIMRARRPNCFFWC  -0.022 ± 0.31
86. FNNLFIRTADQEVTILDVTH  -0.031 ± 1
87. FKHLLSMVIVECFIVIVILC  -0.041 ± 0.5
88. FMMHRVSTRFASKNAS  -0.072 ± 1.1
89. FRRQSPNMQPSCWTDHGLRG  -0.105 ± 1.1
90. FQIREVGEVLNC  -0.202 ± 1.1
91. FRKEEADYHGYRLYSVAVNA  -0.214 ± 0.36
92. FLPNFSNVLFSLHPASKSGE  -0.218 ± 0.48
93. FLRFLVCLG  -0.22 ± 1.1
94. GFMFGMLTISLRSVMFVARV  -0.227 ± 0.32
95. FMGTLNRELYTGRYGVG  -0.243 ± 1
96. GCDLYL  -0.256 ± 0.79
97. FIFDR  -0.257 ± 0.54
98. FSSLIKTICLMTAMAEGMSP  -0.258 ± 0.76
99. FNYDIPPVVQGCHISAQLLP  -0.271 ± 0.74
100. FLSYYFGPFRELVF  -0.287 ± 0.56
101. FWIEDF  -0.291 ± 1.1
102. FYYSLTMRLD  -0.322 ± 0.42
103. FLITCQLESTLYQW  -0.334 ± 0.64
104. GENSVLRSGNFKYKAWFCGG  -0.342 ± 1
105. FRMNEQSPAEWSRSVYFGGG  -0.346 ± 0.49
106. FSMPTYSSALAFM  -0.352 ± 0.28
107. FVFVAARAFCRSVSNVSD  -0.399 ± 0.55
108. GCYRLNSLYATIQLRLLSWW  -0.46 ± 1.1
109. FVYTLAYNRRWYSRAVSFES  -0.461 ± 0.79
110. GAHFYRTVMNVRSTLSRYIN  -0.507 ± 0.48
111. GFGSVLIW  -0.523 ± 1
112. FNLYYSRGLSSCLSYSRLEV  -0.532 ± 1
113. FSNSPVISFGQ  -0.541 ± 1
114. FLSRWSFPHGEFLLIRTLAG  -0.574 ± 0.3
115. GFIGNCYSFASLFGPMSHYV  -0.588 ± 1.1
116. FPRSGYITHLDCATR  -0.589 ± 0.55
117. GFLIKWNNGVLVLVSAMMCI  -0.598 ± 0.4
118. FYMLASPSSTLDSTPKVRSC  -0.665 ± 1.1
119. GFDYLIFLNKHRLVMSWSFE  -0.675 ± 1.1
120. FLHVSRDLPYYYCFLV  -0.703 ± 0.74
121. FSAYLLLLYKN  -0.738 ± 0.76
122. FIKMAITDRCGMAYS  -0.752 ± 0.53
123. FMDIHRKMGTHVFLRKCFRI  -0.771 ± 1.1
124. FNVNRLAVLSYVSSWSGVIM  -0.772 ± 0.35
125. FRCGRVTFNLVEYTFPPWIW  -0.78 ± 0.63
126. FVSYED  -0.793 ± 1.1
127. FKCPFSNFFAMDGYY  -0.801 ± 0.55
128. FLNYVGDGIIEI  -0.835 ± 0.48
129. FSRLTGN  -0.883 ± 0.54
130. FLVLVTFKFRAQTDFLSSWN  -0.884 ± 0.78
131. GFKVF  -0.937 ± 0.31
132. FLPYFNPEVSGIFCVNRMST  -0.971 ± 0.53
133. FNYPSLFTF  -1.01 ± 1.1
134. FSNISSSMKNKSVRGCECGR  -1.04 ± 0.33
135. GALVR  -1.08 ± 0.55
136. GASRVAPVCQTTKSLKCMAK  -1.17 ± 1.1
137. GDYYFV  -1.19 ± 1
138. FRNNKLYIRVYRSKWTE  -1.22 ± 1.1
139. GCGFFDFSVSWL  -1.24 ± 0.78
140. FLVYWTMLVVYGYCVFGWIN  -1.3 ± 0.78
141. FQGEGISTAF  -1.32 ± 0.5
142. FLIEFLWSMSACSAPVFLVF  -1.41 ± 1.1
143. FNAERFLQSIEMVWWDKGFL  -1.53 ± 0.41
144. GFGNFVINDWSLR  -1.56 ± 1.1
145. FLIFTTLLYCMVDMHAGTTF  -1.77 ± 0.78
146. FQYYDKYLYWFFVNN  -2.12 ± 0.73

With FHSLRQLFMNTGVL the amyloid nucleation score was “inactive”.
With FIINKHSFQRGLFMVSLVSI the amyloid nucleation score was “inactive”.
In the case of FKAYHSGKWTYGHITQRGRI, the amyloid nucleation score is reported as “inactive”.
In the case of FLIINYRSCRGINFIYARFY, the amyloid nucleation score is reported as “inactive”.
For FLMACPMFIIVYLCRT, the amyloid nucleation score was “inactive”.
With FLSGVFIMRFHLNY the amyloid nucleation score was “inactive”.
For FLTNGESGTMGI, the amyloid nucleation score was “inactive”.
With FMFPILDSVTPIFDIVITGD the amyloid nucleation score was “inactive”.
With FNLMLI the amyloid nucleation score was “inactive”.
With FNRVLVPRIKNTWILYCYFI the amyloid nucleation score was “inactive”.
In the case of FNYGCFVLDSDHVAGKGILI, the amyloid nucleation score is reported as “inactive”.
For FPKIQSKFSRDIFSDGNEYE, the amyloid nucleation score was “inactive”.
With FRNENC the amyloid nucleation score was “inactive”.
With FRSFRRIILSFYEVNFGSII the amyloid nucleation score was “inactive”.
In the case of FSSSYP, the amyloid nucleation score is reported as “inactive”.
For FTLLVYIFLYMMLIGNSFFM, the amyloid nucleation score was “inactive”.
With FTNAPVLFVN the amyloid nucleation score was “inactive”.
In the case of FTNFNDYLFWNYMNWTGYML, the amyloid nucleation score is reported as “inactive”.
For FVFLFMRLKDGFYATIYISH, the amyloid nucleation score was “inactive”.
For FVQSNYDSSF, the amyloid nucleation score was “inactive”.
With FWHLYPQCQDWSDLQN the amyloid nucleation score was “inactive”.
For FYLGVALVHNKAWLFLWKDD, the amyloid nucleation score was “inactive”.
With GCFERGNLFNFV the amyloid nucleation score was “inactive”.
For GCKVIYIYIIHIFKCIITNW, the amyloid nucleation score was “inactive”.
For GDFSPYYCHCYIIMVCGMLG, the amyloid nucleation score was “inactive”.
With GEQLLED the amyloid nucleation score was “inactive”.
